The source of these data is patent publication US20090104231A1.

The target in assay [1] is NS3 CD4 peptide … presented by MHC of C57B1 mice (Hepatitis C virus).
In assay [2] the target is NS3 CD8 peptide … presented by MHC of C57B1 mice (Hepatitis C virus).
The target of assay [3] is purified HCV NS3 protein (genotype 1b) from Mikrogen (Hepatitis C virus genotype 1b).
For assay [4], the target named is NS5B CD4 peptide … presented by MHC of C57BL/6 mice (Hepatitis C virus).
The target in assay [5] is NS5B CD8 peptide … presented by MHC of C57BL/6 mice (Hepatitis C virus).
Assay [6] deals with purified HCV NS5B protein (genotype 1b) from Mikrogen (Hepatitis C virus genotype 1b).
The target of assay [7] is NS4B CD4 peptide … presented by MHC of Balb/c mice (Hepatitis C virus).
Assay [8] concerns the target NS4B CD8 peptide … presented by MHC of Balb/c mice (Hepatitis C virus).
In assay [9] the target is purified HCV NS4 protein (genotype 1b) from Mikrogen (Hepatitis C virus genotype 1b).
The target of assay [10] is NS3 CD4 peptide … presented by MHC of C57B1 mice (Hepatitis C virus). The source holds these as a separate data set.
In assay [11] the target is NS3 CD8 peptide … presented by MHC of C57B1 mice (Hepatitis C virus). This is another data set of the same source.
The target of assay [12] is NS3 CD4 peptide … presented by MHC of C57B1 mice (Hepatitis C virus). This is another data set of the same source.
Assay [13] has as its target NS3 CD8 peptide … presented by MHC of C57B1 mice (Hepatitis C virus). This is another data set of the same source.

Take “splenocytes of C57BL mice immunised with DNA encoding polyprotein HCV 510 (NS3-NS4B-NS5B-Core) (cells without a defined receptor)”: the IFNγ-producing T cells, intracellular cytokine staining (frequency (unit not given)) in assay [1] was determined as 0.29; in assay [3], 0.17; in assay [4], 0.29; in [5], 0.11; in [6] it was 0.1; in assay [7], 0.09. Further, the figures for the IFNγ-producing T cells, intracellular cytokine staining (frequency (unit not given)) in [8] and in assay [9] were 0.34 and 0.09, respectively. Further, the IFNγ-producing T cells, intracellular cytokine staining (% of CD8+ cells (unit from paragraph 162)) in [2] was found to be 3.95.

On to “splenocytes of mice immunised with DNA encoding NS4B as single antigen (cells without a defined receptor)”, for which the values for the IFNγ-producing T cells, intracellular cytokine staining (frequency (unit not given)) in [7], in assay [8] and in assay [9] were 0.18, 2.04 and 0.17, respectively.

Regarding “splenocytes of mice immunised with DNA encoding NS5B as single antigen (cells without a defined receptor)”, the IFNγ-producing T cells, intracellular cytokine staining (frequency (unit not given)) in assay [4] turned out to be 0.26; in assay [5] it was 1.67; in assay [6], 0.1.

Take “splenocytes of C57BL mice immunised with DNA encoding polyprotein HCV 530 (NS5B-Core-NS3-NS4B) (cells without a defined receptor)”: the IFNγ-producing T cells, intracellular cytokine staining (frequency (unit not given)) in assay [1] came to 0.21; in [3], 0.15; in assay [4] it was 0.7; in [5], 0.12; in [6], 0.06; in assay [7], 0.1. Further, the IFNγ-producing T cells, intracellular cytokine staining (frequency (unit not given)) in assay [8] worked out at 0.37; in [9] it was 0.17. The IFNγ-producing T cells, intracellular cytokine staining (% of CD8+ cells (unit from paragraph 162)) in [2] was 4.89.

“splenocytes of C57BL mice immunised with DNA encoding polyprotein HCV 501 (Core (66-191)-(1-65)-NS3-NS4B-NS5B) (cells without a defined receptor)”: the IFNγ-producing T cells, intracellular cytokine staining (frequency (unit not given)) amounted to 0.08 in [1]; 0.16 in [2]; 0.05 in assay [3]; 0.13 in [4]; 0.09 in assay [5]; 0.03 in assay [6]. Also, the IFNγ-producing T cells, intracellular cytokine staining (frequency (unit not given)) came out at 0.06 in [7], 0.13 in [8] and 0.09 in [9].

As for “T cells of C57BL mice immunised with gold beads co-coated with p7313ieNS3/NS4B/NS5B triple fusion together with core 151 (cells without a defined receptor)”, the intracellular cytokine staining (fold over the Core 191 group) in assay [10] and in assay [11] was 2 throughout.

For “T cells of C57BL mice immunised with gold beads co-coated with p7313ieNS3, p7313ieNS5B and p7313ieCore151 (cells without a defined receptor)”, the intracellular cytokine staining of IFNγ and IL2 (fold over the Core 191 group) in assay [12] and in assay [13] was 2 each time.

Turning to “splenocytes of C57BL mice immunised with DNA encoding polyprotein HCV 500 (Core-NS3-NS4B-NS5B) (cells without a defined receptor)”, the IFNγ-producing T cells, intracellular cytokine staining (frequency (unit not given)) in assay [1] was determined as 0.38; in assay [3], 0.27; in [4], 0.43; in [5] it was 0.35; in assay [6], 0.14; in assay [7], 0.1. Besides, the IFNγ-producing T cells, intracellular cytokine staining (frequency (unit not given)) in [8] worked out at 0.6; in assay [9] it was 0.09. Further, the IFNγ-producing T cells, intracellular cytokine staining (% of CD8+ cells (unit from paragraph 162)) in [2] was found to be 5.54.

With “splenocytes of C57BL mice immunised with DNA encoding polyprotein HCV 520 (NS4B-NS5B-Core-NS3) (cells without a defined receptor)”, the IFNγ-producing T cells, intracellular cytokine staining (frequency (unit not given)) stood at 0.28 in [1]; 0.14 in assay [3]; 0.18 in [4]; 0.08 in assay [5]; 0.09 in [6]; 0.05 in assay [7]. Moreover, the IFNγ-producing T cells, intracellular cytokine staining (frequency (unit not given)) in assay [8] was determined as 0.33; in assay [9], 0.08. The IFNγ-producing T cells, intracellular cytokine staining (% of CD8+ cells (unit from paragraph 162)) in [2] is 3.32.

Turning to “splenocytes of C57BL mice immunised with DNA encoding NS3 alone (cells without a defined receptor)”, the results for the IFNγ-producing T cells, intracellular cytokine staining (frequency (unit not given)) in [1] and in assay [3] were 0.24 and 0.29, respectively. Besides, the IFNγ-producing T cells, intracellular cytokine staining (% of CD8+ cells (unit from paragraph 162)) in assay [2] came to 4.4.
